Data on 1 molecule can be found in patent US20160251438A1 (LUDWIG INSTITUTE FOR CANCER RESEARCH, published 2016).

Assay [1] deals with GARP R170A / TGF-β1 complex (human, UniProt Q14392 20-662; P01137 30-390). Briefly: flow cytometry on transfected 293T cells, 5 ug/ml; grade of Loss of binding read by footnote 2. From the text: (§1) Resolution of the crystal structure of MHG-8 Fab/GARP/TGF-β1 complexes and analysis with the CONTACT software allowed the identification of 22 amino-acids in GARP, 8 amino-acids in LAP and 6 amino-acids in mature TGF-β1 that are located less than 5 Å away from an amino-acid of the light or heavy chain of the MHG-8 Fab (Tables 7a, b and c, and Table 8). Directed mutagenesis was used to construct plasmids encoding HA-tagged forms of GARP or TGF-β1 that are mutated at one, two, or three of these 36 positions (all mutations constructed are indicated in Table 8). […] Antibodies were used at a saturating concentration of 5 μg/ml for labeling. Binding of each antibody to a given mutant GARP/TGF-β1 complex was compared to their binding to wild type (WT) complexes, by determining an I_{m/wt} value (i.e. intensity of binding to mutant by comparison to WT). This value was calculated as follows: I_{m/wt} of antibody X=[Geom on mutant−Geom on control]/[Geom on WT−Geom on control]
(§2) The level of residual binding of anti-GARP or anti-LAP antibodies to each mutant was then calculated by comparison to WT, taking into account the expression levels of mutant and WT forms as measured with anti-HA antibodies. Residual binding was calculated as follows: Residual binding by an anti-GARP or anti-LAP antibody=[I_{m/wt} with anti-GARP or anti-LAP antibody]/[I_{m/wt} with anti-HA antibody]

In assay [2] the target is GARP / TGF-β1 S337A complex (human, UniProt Q14392 20-662; P01137 30-390). Described as above.
Description: as §1, §2

The target in assay [3] is GARP / TGF-β1 E146R complex (human, UniProt Q14392 20-662; P01137 30-390). The assay is described as above.
Description: as §1, §2

In assay [4] the target is GARP M111T/A112G/T113M / TGF-β1 complex (human, UniProt Q14392 20-662; P01137 30-390). The description is as above.
Description: as §1, §2

The target of assay [5] is T1, GARP R163E / TGF-β1 complex (human, UniProt Q14392 20-662; P01137 30-390). The assay is described as above.
Description: as §1, §2

The target of assay [6] is T2, GARP / TGF-β1 K338E complex (human, UniProt Q14392 20-662; P01137 30-390). The description is as above.
Description: as §1, §2

For assay [7], the target named is GARP / TGF-β1 R58A complex (human, UniProt Q14392 20-662; P01137 30-390). The description is as above.
Description: as §1, §2

Assay [8] addresses GARP S138G / TGF-β1 complex (human, UniProt Q14392 20-662; P01137 30-390). The assay is described as above.
Description: as §1, §2

Assay [9] has as its target GARP / TGF-β1 L271R/Q272Y/S273W complex (human, UniProt Q14392 20-662; P01137 30-390). Described as above.
Description: as §1, §2

Assay [10] deals with GARP / TGF-β1 A341Y complex (human, UniProt Q14392 20-662; P01137 30-390). The assay is described as above.
Description: as §1, §2

For assay [11], the target named is GARP G139N / TGF-β1 complex (human, UniProt Q14392 20-662; P01137 30-390). Described as above.
Description: as §1, §2

The target of assay [12] is T3, human TGF-β1 (latent) (human, UniProt P01137 30-390).
T3 construct: from transfected hTGFB1; also called hTGF-β1; hTGFB1
Briefly: FACS, 293T + hTGFB1 only [cont.) B]. From the text:
No latent TGF-β is detected on their surface with an anti-LAP antibody. Transfection of GARP or TGFB1 alone induces no or low surface LAP, respectively, whereas co-transfection of GARP and TGFB1 induces high surface LAP as a result of latent TGF-β1 binding and presentation by GARP (FIG. 14, part B, left histograms).
In general terms: In flow cytometry, cells or beads pass a laser one at a time.

In assay [13] the target is GARP / TGF-β1 Y336A complex (human, UniProt Q14392 20-662; P01137 30-390). The experiment in a line: FACS 293T, 5 ug/ml, normalised to anti-HA.
Description: as §1, §2

The target in assay [14] is T1, GARP R163E / TGF-β1 complex. Briefly: FACS 293T, 5 ug/ml, normalised to anti-HA.
Description: as §1, §2

The target of assay [15] is GARP T162D / TGF-β1 complex (human, UniProt Q14392 20-662; P01137 30-390). The experiment in a line: FACS 293T, 5 ug/ml, normalised to anti-HA.
Description: as §1, §2

The target in assay [16] is T2, GARP / TGF-β1 K338E complex. The experiment in a line: FACS 293T, 5 ug/ml, normalised to anti-HA.
Description: as §1, §2

For assay [17], the target named is GARP R143Y / TGF-β1 complex (human, UniProt Q14392 20-662; P01137 30-390). Briefly: FACS 293T, 5 ug/ml, normalised to anti-HA.
Description: as §1, §2

In assay [18] the target is GARP Y137H / TGF-β1 complex (human, UniProt Q14392 20-662; P01137 30-390). The experiment in a line: FACS 293T, 5 ug/ml, normalised to anti-HA.
Description: as §1, §2

T2 sequence (Q14392 20-662 limits assumed, chain 1 of 2): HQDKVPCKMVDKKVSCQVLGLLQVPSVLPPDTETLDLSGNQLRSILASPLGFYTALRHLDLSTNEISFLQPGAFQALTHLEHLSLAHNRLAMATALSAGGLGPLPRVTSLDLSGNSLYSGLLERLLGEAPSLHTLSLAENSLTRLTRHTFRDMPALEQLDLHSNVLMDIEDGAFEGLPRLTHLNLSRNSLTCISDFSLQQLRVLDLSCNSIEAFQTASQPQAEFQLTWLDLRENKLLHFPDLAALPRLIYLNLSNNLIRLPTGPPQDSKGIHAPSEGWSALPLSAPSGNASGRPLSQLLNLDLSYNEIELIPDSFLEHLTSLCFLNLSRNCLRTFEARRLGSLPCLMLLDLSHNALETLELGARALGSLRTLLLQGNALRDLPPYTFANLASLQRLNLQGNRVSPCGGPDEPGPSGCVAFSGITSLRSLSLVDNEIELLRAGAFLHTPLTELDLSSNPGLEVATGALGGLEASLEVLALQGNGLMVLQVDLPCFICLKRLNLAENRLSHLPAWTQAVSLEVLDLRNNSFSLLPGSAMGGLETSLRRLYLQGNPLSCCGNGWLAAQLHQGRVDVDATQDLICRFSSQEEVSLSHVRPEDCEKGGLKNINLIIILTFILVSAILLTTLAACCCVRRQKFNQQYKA
T2 sequence (P01137 30-390 K338E limits assumed, chain 2 of 2): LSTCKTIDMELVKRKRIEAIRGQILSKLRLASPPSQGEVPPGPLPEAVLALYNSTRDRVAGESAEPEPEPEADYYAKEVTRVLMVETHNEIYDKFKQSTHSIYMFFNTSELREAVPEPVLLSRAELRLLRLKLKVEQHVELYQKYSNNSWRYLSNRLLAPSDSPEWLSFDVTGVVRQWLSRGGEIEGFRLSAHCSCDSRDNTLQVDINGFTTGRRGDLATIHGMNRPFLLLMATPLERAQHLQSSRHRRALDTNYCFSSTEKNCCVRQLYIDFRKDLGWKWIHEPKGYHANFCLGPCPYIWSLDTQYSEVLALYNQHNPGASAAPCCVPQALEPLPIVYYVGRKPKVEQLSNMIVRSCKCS
T1 sequence (Q14392 20-662 R163E limits assumed, chain 1 of 2): as the sequence (Q14392 20-662 limits assumed, chain 1 of 2) above, with R144E counted along it
T1 sequence (P01137 30-390 limits assumed, chain 2 of 2): as the sequence (P01137 30-390 K338E limits assumed, chain 2 of 2) above, with E309K counted along it
Chain of GARP G139N / TGF-β1 complex (Q14392 20-662 G139N limits assumed, chain 1 of 2): as the sequence (Q14392 20-662 limits assumed, chain 1 of 2) above, with G120N counted along it
Chain of GARP G139N / TGF-β1 complex (P01137 30-390 limits assumed, chain 2 of 2): as the sequence (P01137 30-390 K338E limits assumed, chain 2 of 2) above, with E309K counted along it
Chain of GARP R170A / TGF-β1 complex (Q14392 20-662 R170A limits assumed, chain 1 of 2): as the sequence (Q14392 20-662 limits assumed, chain 1 of 2) above, with R151A counted along it
Chain of GARP R170A / TGF-β1 complex (P01137 30-390 limits assumed, chain 2 of 2): as the sequence (P01137 30-390 K338E limits assumed, chain 2 of 2) above, with E309K counted along it
T3 sequence (P01137 30-390 limits assumed): as the sequence (P01137 30-390 K338E limits assumed, chain 2 of 2) above, with E309K counted along it

B1: LHG-10 (antibody, human IgG1, V domains shown)
VH: EVQLVQPGAELRNSGASVKVSCKASGYRFTSYYIDWVRQAPGQGLEWMGRIDPEDGGTKYAQKFQGRVTFTADTSTSTAYVELSSLRSEDTAVYYCARNEWETVVVGDLMYEYEYWGQGTQVTVSS
VL: DIQMTQSPTSLSASLGDRVTITCQASQSISSYLAWYQQKPGQAPKLLIYGASRLQTGVPSRFSGSGSGTSFTLTISGLEAEDAGTYYCQQYDSLPVTFGQGTKVELK
notes: llama-derived V regions in a full human IgG1
In the case of B1, the “residual binding on mutant by comparison to WT” value in assay [1] was no less than 50%; in [2], no less than 50%; in assay [3], no less than 50%; in assay [4] it was no less than 50%; in [5], less than 50%; in assay [6], less than 50%. Also, the “residual binding on mutant by comparison to WT” value in assay [7], in [8], in assay [9], in [10] and in [11] was no less than 50% each time. Further, the binding result in assay [12] is given as “no binding”. For the same molecule, the “residual binding (% of WT)” value came out at 56% in [13]; 48% in assay [14]; 49% in assay [15]; 15% in [16]; 68% in assay [17]; 62% in assay [18].
